Source: paper PMC7367873, “Dissecting the sequence determinants for dephosphorylation by the catalytic subunits of phosphatases PP1 and PP2A” (Nature Communications, 2020)

B1: TFCP2 (protein, UniProt Q12800 1-502, looked up)
Alpha-globin transcription …: MAWALKLPLADEVIESGLVQDFDASLSGIGQELGAGAYSMSDVLALPIFKQEESSLPPDNENKILPFQYVLCAATSPAVKLHDETLTYLNQGQSYEIRMLDNRKLGELPEINGKLVKSIFRVVFHDRRLQYTEHQQLEGWRWNRPGDRILDIDIPMSVGIIDPRANPTQLNTVEFLWDPAKRTSVFIQVHCISTEFTMRKHGGEKGVPFRVQIDTFKENENGEYTEHLHSASCQIKVFKPKGADRKQKTDREKMEKRTPHEKEKYQPSYETTILTECSPWPEITYVNNSPSPGFNSSHSSFSLGEGNGSPNHQPEPPPPVTDNLLPTTTPQEAQQWLHRNRFSTFTRLFTNFSGADLLKLTRDDVIQICGPADGIRLFNALKGRMVRPRLTIYVCQESLQLREQQQQQQQQQQKHEDGDSNGTFFVYHAIYLEELTAVELTEKIAQLFSISPCQISQIYKQGPTGIHVLISDEMIQNFQEEACFILDTMKAETNDSYHIILK
B2: KIFC3 (protein, UniProt Q9BVG8 1-833, looked up)
Kinesin-like protein KIFC3: MVPSRRTWNLGATPSLRGLWRVGRAPEPEPGMARPAPAPASPAARPFPHTGPGRLRTGRGKDTPVCGDEDSSARSAARPALAQCRALSVDWAGPGSPHGLYLTLQVEHLKEKLISQAQEVSRLRSELGGTDLEKHRDLLMVENERLRQEMRRCEAELQELRTKPAGPCPGCEHSQESAQLRDKLSQLQLEMAESKGMLSELNLEVQQKTDRLAEVELRLKDCLAEKAQEEERLSRRLRDSHETIASLRAQSPPVKYVIKTVEVESSKTKQALSESQARNQHLQEQVAMQRQVLKEMEQQLQSSHQLTARLRAQIAMYESELERAHGQMLEEMQSLEEDKNRAIEEAFARAQVEMKAVHENLAGVRTNLLTLQPALRTLTNDYNGLKRQVRGFPLLLQEALRSVKAEIGQAIEEVNSNNQELLRKYRRELQLRKKCHNELVRLKGNIRVIARVRPVTKEDGEGPEATNAVTFDADDDSIIHLLHKGKPVSFELDKVFSPQASQQDVFQEVQALVTSCIDGFNVCIFAYGQTGAGKTYTMEGTAENPGINQRALQLLFSEVQEKASDWEYTITVSAAEIYNEVLRDLLGKEPQEKLEIRLCPDGSGQLYVPGLTEFQVQSVDDINKVFEFGHTNRTTEFTNLNEHSSRSHALLIVTVRGVDCSTGLRTTGKLNLVDLAGSERVGKSGAEGSRLREAQHINKSLSALGDVIAALRSRQGHVPFRNSKLTYLLQDSLSGDSKTLMVVQVSPVEKNTSETLYSLKFAERVRSVELGPGLRRAELGSWSSQEHLEWEPACQTPQPSARAHSAPSSGTSSRPGSIRRKLQPSGKSRPLPV
B3: ILF3 (protein, UniProt Q12906 1-894, looked up)
Interleukin enhancer-binding …: MRPMRIFVNDDRHVMAKHSSVYPTQEELEAVQNMVSHTERALKAVSDWIDEQEKGSSEQAESDNMDVPPEDDSKEGAGEQKTEHMTRTLRGVMRVGLVAKGLLLKGDLDLELVLLCKEKPTTALLDKVADNLAIQLAAVTEDKYEILQSVDDAAIVIKNTKEPPLSLTIHLTSPVVREEMEKVLAGETLSVNDPPDVLDRQKCLAALASLRHAKWFQARANGLKSCVIVIRVLRDLCTRVPTWGPLRGWPLELLCEKSIGTANRPMGAGEALRRVLECLASGIVMPDGSGIYDPCEKEATDAIGHLDRQQREDITQSAQHALRLAAFGQLHKVLGMDPLPSKMPKKPKNENPVDYTVQIPPSTTYAITPMKRPMEEDGEEKSPSKKKKKIQKKEEKAEPPQAMNALMRLNQLKPGLQYKLVSQTGPVHAPIFTMSVEVDGNSFEASGPSKKTAKLHVAVKVLQDMGLPTGAEGRDSSKGEDSAEETEAKPAVVAPAPVVEAVSTPSAAFPSDATAEQGPILTKHGKNPVMELNEKRRGLKYELISETGGSHDKRFVMEVEVDGQKFQGAGSNKKVAKAYAALAALEKLFPDTPLALDANKKKRAPVPVRGGPKFAAKPHNPGFGMGGPMHNEVPPPPNLRGRGRGGSIRGRGRGRGFGGANHGGYMNAGAGYGSYGYGGNSATAGYSQFYSNGGHSGNASGGGGGGGGGSSGYGSYYQGDNYNSPVPPKHAGKKQPHGGQQKPSYGSGYQSHQGQQQSYNQSPYSNYGPPQGKQKGYNHGQGSYSYSNSYNSPGGGGGSDYNYESKFNYSGSGGRSGGNSYGSGGASYNPGSHGGYGGGSGGGSSYQGKQGGYSQSNYNSPGSGQNYSGPPSSYQSSQGGYGRNADHSMNYQYR
B4: MYO1E (protein, UniProt Q12965 1-1108, looked up)
Unconventional myosin-Ie: MGSKGVYQYHWQSHNVKHSGVDDMVLLSKITENSIVENLKKRYMDDYIFTYIGSVLISVNPFKQMPYFGEKEIEMYQGAAQYENPPHIYALADNMYRNMIIDRENQCVIISGESGAGKTVAAKYIMSYISRVSGGGTKVQHVKDIILQSNPLLEAFGNAKTVRNNNSSRFGKYFEIQFSPGGEPDGGKISNFLLEKSRVVMRNPGERSFHIFYQLIEGASAEQKHSLGITSMDYYYYLSLSGSYKVDDIDDRREFQETLHAMNVIGIFAEEQTLVLQIVAGILHLGNISFKEVGNYAAVESEEFLAFPAYLLGINQDRLKEKLTSRQMDSKWGGKSESIHVTLNVEQACYTRDALAKALHARVFDFLVDSINKAMEKDHEEYNIGVLDIYGFEIFQKNGFEQFCINFVNEKLQQIFIELTLKAEQEEYVQEGIRWTPIEYFNNKIVCDLIENKVNPPGIMSILDDVCATMHAVGEGADQTLLQKLQMQIGSHEHFNSWNQGFIIHHYAGKVSYDMDGFCERNRDVLFMDLIELMQSSELPFIKSLFPENLQADKKGRPTTAGSKIKKQANDLVSTLMKCTPHYIRCIKPNETKKPRDWEESRVKHQVEYLGLKENIRVRRAGYAYRRIFQKFLQRYAILTKATWPSWQGEEKQGVLHLLQSVNMDSDQFQLGRSKVFIKAPESLFLLEEMRERKYDGYARVIQKSWRKFVARKKYVQMREEASDLLLNKKERRRNSINRNFIGDYIGMEEHPELQQFVGKREKIDFADTVTKYDRRFKGVKRDLLLTPKCLYLIGREKVKQGPDKGLVKEVLKRKIEIERILSVSLSTMQDDIFILHEQEYDSLLESVFKTEFLSLLAKRYEEKTQKQLPLKFSNTLELKLKKENWGPWSAGGSRQVQFHQGFGDLAVLKPSNKVLQVSIGPGLPKNSRPTRRNTTQNTGYSSGTQNANYPVRAAPPPPGYHQNGVIRNQYVPYPHAPGSQRSNQKSLYTSMARPPLPRQQSTSSDRVSQTPESLDFLKVPDQGAAGVRRQTTSRPPPAGGRPKPQPKPKPQVPQCKALYAYDAQDTDELSFNANDIIDIIKEDPSGWWTGRLRGKQGLFPNNYVTKI
B5: GEMIN8 (protein, UniProt Q9NWZ8 1-242, looked up)
Gem-associated protein 8: MAAVKASTSKATRPWYSHPVYARYWQHYHQAMAWMQSHHNAYRKAVESCFNLPWYLPSALLPQSSYDNEAAYPQSFYDHHVAWQDYPCSSSHFRRSGQHPRYSSRIQASTKEDQALSKEEEMETESDAEVECDLSNMEITEELRQYFAETERHREERRRQQQLDAERLDSYVNADHDLYCNTRRSVEAPTERPGERRQAEMKRLYGDSAAKIQAMEAAVQLSFDKHCDRKQPKYWPVIPLKF
B6: LSM12 (protein, UniProt Q3MHD2 2-195, looked up)
Protein LSM12: AAPPGEYFSVGSQVSCRTCQEQRLQGEVVAFDYQSKMLALKCPSSSGKPNHADILLINLQYVSEVEIINDRTETPPPLASLNVSKLASKARTEKEEKLSQAYAISAGVSLEGQQLFQTIHKTIKDCKWQEKNIVVMEEVVITPPYQVENCKGKEGSALSHVRKIVEKHFRDVESQKILQRSQAQQPQKEAALSS
B7: FAM120A (protein, UniProt Q9NZB2 1-1118, looked up)
Constitutive coactivator of …: MGVQGFQDYIEKHCPSAVVPVELQKLARGSLVGGGRQRPPQTPLRLLVDADNCLHRLYGGFYTDWVSGGQWNHMLGYLAALAKACFGGNIELFVFFNGALEKARLHEWVKRQGNERQTAQQIVSHVQNKGTPPPKVWFLPPVCMAHCIRLALIRFHVKVAQSIEDHHQEVIGFCRENGFHGLVAYDSDYALCNIPYYFSAHALKLSRNGKSLTTSQYLMHEVAKQLDLNPNRFPIFAALLGNHILPDEDLASFHWSLLGPEHPLASLKVRAHQLVLPPCDVVIKAVADYVRNIQDTSDLDAIAKDVFQHSQSRTDDKVIRFKRAIGYYSATSKPMSFHPPHYLAARPGPFGMPGMVPPHVPPQMLNIPQTSLQAKPVAPQVPSPGGAPGQGPYPYSLSEPAPLTLDTSGKNLTEQNSYSNIPHEGKHTPLYERSSPINPAQSGSPNHVDSAYFPGSSTSSSSDNDEGSGGATNHISGNKIGWEKTGSHSEPQARGDPGDQTKAEGSSTASSGSQLAEGKGSQMGTVQPIPCLLSMPTRNHMDITTPPLPPVAPEVLRVAEHRHKKGLMYPYIFHVLTKGEIKIAVSIEDEANKDLPPAALLYRPVRQYVYGVLFSLAESRKKTERLAFRKNRLPPEFSPVIIKEWAAYKGKSPQTPELVEALAFREWTCPNLKRLWLGKAVEDKNRRMRAFLACMRSDTPAMLNPANVPTHLMVLCCVLRYMVQWPGARILRRQELDAFLAQALSPKLYEPDQLQELKIENLDPRGIQLSALFMSGVDMALFANDACGQPIPWEHCCPWMYFDGKLFQSKLLKASREKTPLIDLCDGQADQAAKVEKMRQSVLEGLSFSRQSHTLPFPPPPALPFYPASAYPRHFGPVPPSQGRGRGFAGVCGFGGPYGETVATGPYRAFRVAAASGHCGAFSGSDSSRTSKSQGGVQPIPSQGGKLEIAGTVVGHWAGSRRGRGGRGPFPLQVVSVGGPARGRPRGVISTPVIRTFGRGGRYYGRGYKNQAAIQGRPPYAASAEEVAKELKSKSGESKSSAMSSDGSLAENGVMAEEKPAPQMNGSTGDARAPSHSESALNNDSKTCNTNPHLNALSTDSACRREAALEAAVLNKEE

tested on: GFP-14-3-3β; experiment: GFP-14-3-3β co-IP with LC-MS/MS, untreated GFP-14-3-3β versus GFP control (14-3-3 interactome); type: binding, human; conditions: GFP-14-3-3β co-IP LC-MS/MS; untreated vs GFP; student's t-test; label-free quantification, 3 replicates each

Compared with B1, B2 is higher in “Difference (log2), untreated vs GFP” value: 0.6477 log2 for the first, 1.361 log2 for the second.

Going from B3 to B4, the “Difference (log2), untreated vs GFP” value falls from 3.029 log2 to 1.374 log2.

B5 was tested, and the “Difference (log2), untreated vs GFP” value was 0.1049 log2.

same assay, conditions: log2 difference; pairwise comparison untreated vs GFP, label-free quantification, 3 replicates each

First: B6
Second: B7
The “Difference (log2), untreated vs GFP” value of the first is higher: 1.227 for the first, -0.07006 for the second.

tested on: GFP-14-3-3β and its binding proteins; experiment: GFP-14-3-3β co-IP with LC-MS/MS label-free quantification, untreated versus PP1c-treated; set-up: species or system human; conditions: GFP-14-3-3β co-IP LC-MS/MS; PP1 vs untreated; student's t-test; label-free quantification, 3 replicates each

Going from B1 to B2, the “Difference (log2), PP1 vs untreated” value rises from -0.2131 log2 to -0.1977 log2.

Compared with B3, B4 is higher in “Difference (log2), PP1 vs untreated” value: -0.2231 log2 for the first, -0.1954 log2 for the second.

For B5, the “Difference (log2), PP1 vs untreated” value was -0.2137 log2.

same assay, conditions: log2 difference; pairwise comparison PP1 vs untreated, label-free quantification, 3 replicates each

B6 and B7 are within 0.2 log units of each other in “Difference (log2), PP1 vs untreated” value: 1.729 for the first, 1.725 for the second.
